The record followed here is the supplement of paper PMC5998384.

Data set [1] has as its system HeLa Kyoto. Put plainly: solubility in G1/S (NP-40 vs SDS abundance) (log2 ratio); higher = more soluble. The following applies: cell cycle stage: G1/S.
The subject of data set [2] is HeLa Kyoto. Put plainly: thermal stability score vs G1/S (z-score of summed log2 fold changes over temperatures); higher = more thermally stable than in G1/S.
Data set [3] concerns HeLa Kyoto. Put plainly: melting temperature (median over replicates), in situ; higher = more thermally stable.
The test system of data set [4] is HeLa Kyoto. Put plainly: solubility change mitosis vs G1/S (difference of NP-40 vs SDS log2 ratios) (log2 ratio difference); higher = more soluble in mitosis.
Setting [5] is: cell cycle stage: early G1 (4.5 h after nocodazole release).
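For melting temperature (median over replicates), in situ in this document: HeLa Kyoto cells synchronized by double thymidine or nocodazole block, proteins quantified by TMT10plex mass spectrometry, three independent biological replicates.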
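For solubility change mitosis vs G1/S (difference of NP-40 vs SDS log2 ratios) in this document: synchronized HeLa Kyoto cells (double thymidine block for G1/S, nocodazole release for mitosis), protein amounts in NP-40 versus SDS lysates quantified by mass spectrometry, three biological replicates.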
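For solubility in G1/S (NP-40 vs SDS abundance) in this document: HeLa Kyoto cells arrested at G1/S by double thymidine block, proteins quantified by TMT10plex mass spectrometry in mild NP-40 versus SDS extracts, three biological replicates.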
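For thermal stability score vs G1/S (z-score of summed log2 fold changes over temperatures) in this document: synchronized HeLa Kyoto cells, proteins quantified by TMT10plex mass spectrometry, three biological replicates, mitosis taken 0.5 h after nocodazole release, G1/S directly after double thymidine block.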

Consider “MSQSGAVSCCPGATNGSLGRSDGVAKMSPKDLFEQRKKYSNSNVIMHETSQYHVQHLATFIMDKSEAITSVDDAIRKLVQLSSKEKIWTQEMLLQVNDQSLRLLDIESQEELEDFPLPTVQRSQTVLNQLRYPSVLLLVCQDSEQSKPDVHFFHCDEVEAELVHEDIESALADCRLGKKMRPQTLKGHQEKIRQRQSILPPPQGPAPIPFQHRGGDSPEAKNRVGPQVPLSEPGFRRRESQEEPRAVLAQKIEKETQILNCALDDIEWFVARLQKAAEAFKQLNQRKKGKKKGKKAPAEGVLTLRARPPSEGEFIDCFQKIKLAINLLAKLQKHIQNPSAAELVHFLFGPLDLIVNTCSGPDIARSVSCPLLSRDAVDFLRGHLVPKEMSLWESLGESWMRPRSEWPREPQVPLYVPKFHSGWEPPVDVLQEAPWEVEGLASAPIEEVSPVSRQSIRNSQKHSPTSEPTPPGDALPPVSSPHTHRGYQPTPAMAKYVKILYDFTARNANELSVLKDEVLEVLEDGRQWWKLRSRSGQAGYVPCNILGEARPEDAGAPFEQAGQKYWGPASPTHKLPPSFPGNKDELMQHMDEVNDELIRKISNIRAQPQRHFRVERSQPVSQPLTYESGPDEVRAWLEAKAFSPRIVENLGILTGPQLFSLNKEELKKVCGEEGVRVYSQLTMQKAFLEKQQSGSELEELMNKFHSMNQRRGEDS [EPS8L2]”, for which the “solubility in G1/S (log2)” value in data set [1] turned out to be 0.468. Besides, the results for the thermal stability score in data set [2] (setting [5]) and in data set [2] (cell cycle stage: mitosis) were 0.00646 and 0.475, respectively. The melting temperature in data set [3] (cell cycle stage: G1/S) is 50.4 °C; in data set [3] (cell cycle stage: mitosis) it was 50.1 °C. In addition, the “solubility change mitosis (log2)” value in data set [4] is -0.0548.

In the case of “MNVTPEVKSRGMKFAEEQLLKHGWTQGKGLGRKENGITQALRVTLKQDTHGVGHDPAKEFTNHWWNELFNKTAANLVVETGQDGVQIRSLSKETTRYNHPKPNLLYQKFVKMATLTSGGEKPNKDLESCSDDDNQGSKSPKILTDEMLLQACEGRTAHKAARLGITMKAKLARLEAQEQAFLARLKGQDPGAPQLQSESKPPKKKKKKRRQKEEEEATASERNDADEKHPEHAEQNIRKSKKKKRRHQEGKVSDEREGTTKGNEKEDAAGTSGLGELNSREQTNQSLRKGKKKKRWHHEEEKMGVLEEGGKGKEAAGSVRTEEVESRAYADPCSRRKKRQQQEEEDLNLEDRGEETVLGGGTREAESRACSDGRSRKSKKKRQQHQEEEDILDVRDEKDGGAREAESRAHTGSSSRGKRKRQQHPKKERAGVSTVQKAKKKQKKRD [GPATCH4]”, the “solubility in G1/S (log2)” value in data set [1] is -1.28. In addition, the thermal stability score in data set [2] (setting [5]) came to 1.12; in data set [2] (cell cycle stage: mitosis) it was 2.93. Also, the melting temperature in data set [3] (cell cycle stage: G1/S) worked out at 47.5 °C; in data set [3] (cell cycle stage: mitosis), 48.6 °C. The “solubility change mitosis (log2)” value in data set [4] came to 0.885.

Consider “MRRLNRKKTLSLVKELDAFPKVPESYVETSASGGTVSLIAFTTMALLTIMEFSVYQDTWMKYEYEVDKDFSSKLRINIDITVAMKCQYVGADVLDLAETMVASADGLVYEPTVFDLSPQQKEWQRMLQLIQSRLQEEHSLQDVIFKSAFKSTSTALPPREDDSSQSPNACRIHGHLYVNKVAGNFHITVGKAIPHPRGHAHLAALVNHESYNFSHRIDHLSFGELVPAIINPLDGTEKIAIDHNQMFQYFITVVPTKLHTYKISADTHQFSVTERERIINHAAGSHGVSGIFMKYDLSSLMVTVTEEHMPFWQFFVRLCGIVGGIFSTTGMLHGIGKFIVEIICCRFRLGSYKPVNSVPFEDGHTDNHLPLLENNTH [ERGIC2]”, for which the “solubility in G1/S (log2)” value in data set [1] was -0.0386. In addition, the thermal stability score is -2.27 in data set [2] (setting [5]) and -7.02 in data set [2] (cell cycle stage: mitosis). Further, the melting temperature in data set [3] (cell cycle stage: G1/S) is 54.8 °C; in data set [3] (cell cycle stage: mitosis) it was 53.8 °C. Moreover, the “solubility change mitosis (log2)” value in data set [4] is -0.216.

Regarding “MKVARFQKIPNGENETMIPVLTSKKASELPVSEVASILQADLQNGLNKCEVSHRRAFHGWNEFDISEDEPLWKKYISQFKNPLIMLLLASAVISVLMHQFDDAVSITVAILIVVTVAFVQEYRSEKSLEELSKLVPPECHCVREGKLEHTLARDLVPGDTVCLSVGDRVPADLRLFEAVDLSIDESSLTGETTPCSKVTAPQPAATNGDLASRSNIAFMGTLVRCGKAKGVVIGTGENSEFGEVFKMMQAEEAPKTPLQKSMDLLGKQLSFYSFGIIGIIMLVGWLLGKDILEMFTISVSLAVAAIPEGLPIVVTVTLALGVMRMVKKRAIVKKLPIVETLGCCNVICSDKTGTLTKNEMTVTHIFTSDGLHAEVTGVGYNQFGEVIVDGDVVHGFYNPAVSRIVEAGCVCNDAVIRNNTLMGKPTEGALIALAMKMGLDGLQQDYIRKAEYPFSSEQKWMAVKCVHRTQQDRPEICFMKGAYEQVIKYCTTYQSKGQTLTLTQQQRDVYQQEKARMGSAGLRVLALASGPELGQLTFLGLVGIIDPPRTGVKEAVTTLIASGVSIKMITGDSQETAVAIASRLGLYSKTSQSVSGEEIDAMDVQQLSQIVPKVAVFYRASPRHKMKIIKSLQKNGSVVAMTGDGVNDAVALKAADIGVAMGQTGTDVCKEAADMILVDDDFQTIMSAIEEGKGIYNNIKNFVRFQLSTSIAALTLISLATLMNFPNPLNAMQILWINIIMDGPPAQSLGVEPVDKDVIRKPPRNWKDSILTKNLILKILVSSIIIVCGTLFVFWRELRDNVITPRDTTMTFTCFVFFDMFNALSSRSQTKSVFEIGLCSNRMFCYAVLGSIMGQLLVIYFPPLQKVFQTESLSILDLLFLLGLTSSVCIVAEIIKKVERSREKIQKHVSSTSSSFLEV [ATP2C1]”, the “solubility in G1/S (log2)” value in data set [1] is -0.143. In addition, the results for the thermal stability score in data set [2] (setting [5]) and in data set [2] (cell cycle stage: mitosis) were -1.8 and -1.34, respectively. The melting temperature is 54.1 °C in data set [3] (cell cycle stage: G1/S) and 54.2 °C in data set [3] (cell cycle stage: mitosis). Also, the “solubility change mitosis (log2)” value in data set [4] is -0.0972.

NCAPD3: the “solubility in G1/S (log2)” value in data set [1] was -0.316. Also, the thermal stability score in data set [2] (setting [5]) amounted to 0.362; in data set [2] (cell cycle stage: mitosis), 0.667. The melting temperature came to 48.4 °C in data set [3] (cell cycle stage: G1/S) and 49.8 °C in data set [3] (cell cycle stage: mitosis). In addition, in data set [4], the “solubility change mitosis (log2)” value was -0.0894.

As to “MNLEKLSKPELLTLFSILEGELEARDLVIEALKAQHRDTFIEERYGKYNISDPLMALQRDFETLKEKNDGEKQPVCTNPLSILKVVMKQCKNMQERMLSQLAAAESRHRKVILDLEEERQRHAQDTAEGDDVTYMLEKERERLTQQLEFEKSQVKKFEKEQKKLSSQLEEERSRHKQLSSMLVLECKKATNKAAEEGQKAGELSLKLEKEKSRVSKLEEELAAERKRGLQTEAQVEKQLSEFDIEREQLRAKLNREENRTKTLKEEMESLKKIVKDLEASHQHSSPNEQLKKPVTVSKGTATEPLMLMSVFCQTESFPAERTHGSNIAKMTNTGLPGPATPAYSYAKTNGHCDPEIQTTRELTAGNNVENQVPPREKSVALAQEKPVENGGCPVGIETPVPMPSPLSSSGSSLSPSSTASSSLTSSPCSSPVLTKRLLGSSASSPGYQSSYQVGINQRFHAARHKFQSQADQDQQASGLQSPPSRDLSPTLIDNSAAKQLARNTVTQVLSRFTSQQGPIKPVSPNSSPFGTDYRNLANTANPRGDTSHSPTPGKVSSPLSPLSPGIKSPTIPRAERGNPPPIPPKKPGLTPSPSATTPLTKTHSQAASLTTAEDLASSCSSNTVVANGKDVELLLPTSS [CTTNBP2NL]”, the “solubility in G1/S (log2)” value in data set [1] was determined as 0.435. Besides, the thermal stability score is -2.02 in data set [2] (setting [5]) and -1.85 in data set [2] (cell cycle stage: mitosis). Moreover, the melting temperature in data set [3] (cell cycle stage: G1/S) amounted to 49.9 °C; in data set [3] (cell cycle stage: mitosis), 50.3 °C. Besides, in data set [4], the “solubility change mitosis (log2)” value is -0.363.
